This data set can be described thus: label from the status in PepcDB records.
Turning to “MMCRSITLFLFALISIVVGKQLSAQSISELRLLIDSGRYDRALPIAQQLVAKNPKHADNNYMLGLLLYKAERYEEAIAPLRVAVSRRSDAYEMLADAYAKEYFFSEALAALEKQKVTLVKKKQETVSIDAGIDRMRRAVRLLDRAEWVEVIDSVRTNKADLLSAYNLIADNGRLEWVKGNQGEATSFVNGRGDHAIMTEKGEDGVYSLHEAHRIGGKWGNAIPLEKLNSRFNENYPSLRADGFTLLFASDRPDGIGGYDLYMTRRDLEDGIFLEPTLLGMPFNSPYNDYLLVYDELRGIGFFASDRFCPADVVTVYTFVINEEGRPVATDDMALKRAYASLKSIRATQDPERDYSRLIASARDNRTDAEKKASERQIYFPMQGMRIYTRWSDFQSSEAKSLYQDVMARKRKLEQAATRLEELRLLYGRASALERSGMKQEILRLENAIPPLEEEVGRMEKEVRNMELQAVQGF”, the protein production entry is given as “failed”. With “MPLLIITTILWAFSFSLIGEYLAGQVDSWFSAMFRLTAAAVVFLPFLRWRGYAPRVIFLYMLVGACQLGIMYLFVFQAYLYLTVPEFLLFTVMTPLYVTLIYDLLARHRLRWGYVMSALLAVFGAAVIHYHGVSEHFWWGFLLVQVANVCFASGQVGYKRLMEIHPVPQHCAFSWFYLGAAIVTIAAWLLFGNMDKLPTTTLQWGVLAWLGIGASGVGYFMWNYGATQVDAGTLSIMNNFHVPAGLLVNFAIWHKTPDWLSFIVGTAIITSSLWVHQHWVVKRPLRTANDHKRADAQNE” the entry was “failed”. On to “PKKPGTGKHIVYFPGANTYYQACFRDISTACKETGATVHAFNFPGTGLSSGKVREANDLINAGISVVSSLIKQGVHPDDIILQGDCYGASIALEVKKQLEDQ”, for which the protein production entry was “failed”. For “MSQKQEEENPAEETGEEKQDTQEKEGILPERAEEAKLKAKYPSLGQKPGGSDFLMKRLQKGQKYFDSGDYNMAKAKMKNKQLPSAGPDKNLVTGDHIPTPQDLPQRKSSLVTSKLAGGQVE”, the protein production entry was “failed”. Consider “MKLAASLNRLSPKRLFRTKSKASVSRSEPSSFSSNASSSSSDGSYGNLKQGPTATPISVLPQNSGDFYTELVQAFKLIDRDDDGVVSRGDLAALISRLSHEPPSQEEVSLMLREVDGGDGGCISLEDLASRVAGTSGEGSVETEELREVFEIFDVDRNGKISAEELHRVFGVIGDERCTLEECMRMIATVDGNGDGFVCFDDFCRMMVPAMNDHHH”, for which the protein production entry is “failed”.

In the case of “MSKPLYVFDMDETLINADCAMIWNAFLVEKGIATQPNFIEEDQRLMALYAEGKMDMEDYLEFCMAPLADMPIAHVLMLVEECVEHHILPKQFEQSKTLIAQLDRDDIDMVIISASVTFLVEAVGRRLGIPVALGIDLVEKHGSYSAEIAGVPSYREGKVIRLKAWLDAQPESYSEVHFYTDSINDLPLCEYADYAYLVNPCPQLKARADKANWTLLRWN”, the protein production result is “failed”.

On to “MMKEKLESKKDEIRCCYKITDTDVAVLLKMVEIEKPITSEELADIFKLSKTTVENSLKKLIELGLVVRTKTEGKKIGRPKYYYSISSNILEKIRNDLLNCAKRMELAAT”, for which the protein production result was “not failed”. Consider “MSRRTTLRRVGLLVLGVNLLLVLLKAGVWLTTGSFAVQSEAVNSAADTAYSLVIVAGLYLTTRPPDFEHPHGHERIEPFVSLFVAAGIFAAGGFVLWNAGTALLTGNISVTQGPAAVLVLAFSAVAKYALYRYCLRAGTDRNSPALIATAKDNRNDILTAGAALVGVGGAMAGYPIADPLAALVVAIGIIYTGIEVVQENVTYLVGGAPPEDLRREILRRALDHPKVSGAHDVIAHYVGPEIDVSLHIEVEGDLTLFEAHDIETAVIKSIEELPEVDDAFIHVDPKELGEWKDDEEVERLADLE”, for which the protein production entry is reported as “failed”. With “MSTQSEAILEENLLKQLVSLGYEKVLIRDEAELLANLKAQLERHNKITLDDMEFSRILNHLNKGNVFEKAKILRDKFALTREDGTTKYIEFLDTERWCQNLFQVTHQVTIEGSYKNRYDVTILINGLPLVQIELKRRGLELKEAFNQINRYQRHSYGANSALFHYVQIFVISNGVNTKYYANNRNQSFKQTFFWADKENKNITNLNEFTDLFLEPCHISKMICKYVVLAEATKTLMILRPYQYHATEAIIDRVVNTNKNGYIWHTTGSGKTLTSFKTAQILMKLPNVHKVVFVVDRKDLDYQTTKEFNSFSQGSVDGTDNTASLVRQFSDDTRLIVTTIQKLNTAINKQRYLEKMKNLRDKRIVFIFDECHRSQFGDTHRNITKFFNNYQMIGFTGTPIFADNATGNKFGKRTTKELFDECLHKYVITDAIADENVLKFSVEYIGRYKEREGSQNNLDIEVEDIDTKELLESPERLEKIVDYIIAHHDRKTHSKEFTAMMCVSSVDVLTKYYELFRSKQHGLKIATIFSYSTNEDDKDANGLDSLEESDGAHVDEEHINMHSRDKLEEYIAHYNTMFGTNFTTKDSQSFYNYYNDISKRVKNQEVDILLVVNMFLTGFDSKTLNTLYVDKNLKYHGLIQAFSRTNRILNEKKSQGNILCFRNLKKATDAAIALFSNKNAKEIILMKSYEEYVEKFIEALKKLKEIAPTIDSVDSLYDEESKLEFIKAFRELMRIQNILGSFADFSFADLGIAEQEFEEYKSKYLDIHDTIKREGKEKVSILEDVDFELELIHKDEINVTYILKLLAQLKDASEQEHQTQRQNIINIINGNAQLRSKRELIERFIDAHLMSLEDIDMVDGAFEKFWNEEKLKAFDALCEEENLNKEKVKKVVDTYLYDERPPLSDDIANTLNIKPKLLERRKVVPRVLDKIMTFVDRFYT”, the protein production result is “failed”. Under “MAKKRGKPEIDWTDDDKEIIWVSKSEIKRDSEHLKKLGAELIELTPQNLEKIPLDEDLKYAIRQAQSFKLEARRRQIQFIGKLLRNRDSAPIQDALDKVKNRHNQQQALLHKLELIRDQLINMGDASLNQLLSEYPQLDRQHLRNLIRMAQKEKQINKPAKNYHEILQYLKSELIV” stands “not failed”; under “NDNSPRFEKSVYEADLAENSAPGTPILQLRAADLDVGVNGQIEYVFGAATESVRRLLRLDETSGWLSVLHRIDREEVNQLRFTVMARDRGQPPKTDKATVVLNIKDENDNVP”, “not failed”; under “VSVIMPVLNEERHLRGAVQAILAQEYDGEMEVVIAIGPSSDRTEEIAAELVREDPRVHTVPNPTGRTPAALNAAIKASRHPVVVRVDGHGMLSPNYIATAVRLLAETGAQNVGGIMHAEGENDWEHAVAAAMTSKIGVGNAAFHTGGEAGPAETVYLGVFRREALEQQGGYNEEFIRAQDWELNFRIREAGGLIWFSPELKVSYRPRPSVRALAKQYKDYGRWRHVVARYHEGSINLRYLAPPTAVCAIAAGVVVGLALTPWGLVVPGGYLAAIALGS”, “failed”.

For the sequence “MGKLLFVDIGGTLLDYSNEVPRSAVDAIRKARAKGHRVYLSSGRSSAEVTSQLWDIGVDGLIGANGGYVESAQESVFHRRLSGEETRHIVEWLYNRGLEFYLESNNGLYASRGFREASKPVLSRLSEKTDVTVDSMYPDMFWGASLDRDDVNKISYIFNSQEDLDAAREAFPNLEHTTWGGQTGALFGTIGVSVNKKIGVDRLLKYLNADRANTIAFGDSDEDLSLFEASAYGVAMGEATESLKAAADLVTDAVGQDGLRNAFLKLELIDA”, the protein production result is “failed”.

Take “MNEPQAFAQTDAEWLASINRARDWFQGPLGSLMLAEERRLLCDELTRYFGGYLVHYGPHAELPPSTGQIQRGVRLGPPLPGVDIACEEGAWPLSEHAADVVLLQHGLDFCLSPHRLLREAARTVRPGGHLLLIGINPWSLWGIRHYFAGDALRQARCIPPSRACDWLNLLGFALEKRRFGCYRPPLASAAWQSRLARLERWGDAWQSSGAGFYLLVARKLVVGLRPLRQSKREPRGQLVPMPVAKVSRRDSEI”: the protein production entry is recorded as “failed”. Take “MSEKAKKGFKMPSSYTVLLIIIAIMAVLTWFIPAGAFIEGIYETQPQNPQGIWDVLMAPIRAMLGTHPEEGSLIKETSAAIDVAFFILMVGGFLGIVNKTGALDVGIASIVKKYKGREKMLILVLMPLFALGGTTYGMGEETMAFYPLLVPVMMAVGFDSLTGVAIILLGSQIGCLASTLNPFATGIASATAGVGTGDGIVLRLIFWVTLTALSTWFVYRYADKIQKDPTKSLVYSTRKEDLKHFNVEESSSVESTLSSKQKSVLFLFVLTFILMVLSFIPWTDLGVTIFDDFNTWLTGLPVIGNIVGSSTSALGTWYFPEGAMLFAFMGILIGVIYGLKEDKIISSFMNGAADLLSVALIVAIARGIQVIMNDGMITDTILNWGKEGLSGLSSQVFIVVTYIFYLPMSFLIPSSSGLASATMGIMAPLGEFVNVRPSLIITAYQSASGVLNLIAPTSGIVMGALALGRINIGTWWKFMGKLVVAIIVVTIALLLLGTFLPFL”: the protein production result is listed as “failed”.

The record behind these values is a protein production outcome set (Wang et al. 2014).
